Reference: article PMC10350915, “Development of a New Class of CXCR4-Targeting Radioligands Based on the Endogenous Antagonist EPI-X4 for Oncological Applications” (Journal of Medicinal Chemistry, 2023)
One block for each molecule: values may come before it. Square brackets hold non-standard residues; d marks the D form. Peptide text beside a SMILES is read from it. * marks the point of attachment. DOTA = O=C(O)CN1CCN(CC(=O)O)CCN(CC(=O)*)CCN(CC(=O)O)CC1; Palmitoyl = CCCCCCCCCCCCCCCC(=O)*

Columns and labels:
Jurkat xenografts [1] = type: in vivo, mouse; details: 1 h p.i., SPECT/CT or PET/CT
Description: The ability of the ^177Lu ligands to target CXCR4 in vivo was assessed by SPECT/CT imaging in Jurkat xenografts. […] 1 h after injection, the remaining amount of radioligand in the body (and vice versa, the washout) was quantified by measuring the total body activity (mouse) in a dose calibrator. The % of the radioligand remaining in the body after 1 h is reported in Figure 6A as % of the remaining activity in reference to the injected activity (100%).
Figure 6 SPECT/CT images as maximum intensity projections (MIPs) of Jurkat tumor-bearing mice at 1 h p.i. of ^177Lu-labeled ligands (200 pmol, ∼15 MBq). […] (B) Same SPECT/CT images of ^177Lu-1, ^177Lu-2, ^177Lu-5, and ^177Lu-6, adapted in a lower scale. T: tumor, L: liver, and K: kidneys. […] TEXT PRINTED IN THE PICTURE: (A) ^177Lu-1: Remaining Activity (% injected): 6 % | (A) ^177Lu-2: Remaining Activity (% injected): 7 % | (A) ^177Lu-5: Remaining Activity (% injected): 7 % | (A) ^177Lu-6: Remaining Activity (% injected): 8 % | (A) ^177Lu-7: Remaining Activity (% injected): 55 % | (A) ^177Lu-9: Remaining Activity (% injected): 94 %
(§1) The experimental protocol involving animals was approved by the Veterinary Office (Department of Health) of the Cantonal Basel-Stadt (Approval No. 30515) in accordance with the Swiss regulations for animal treatment. Female athymic nude-Foxn1^nu/Foxn1^+ mice (Envigo, The Netherlands), 4–6 weeks old, were injected subcutaneously with 10^7 Jurkat cells in a 200 μL (1:1) mixture of PBS and Matrigel (CorningMatrigelMembrane matrix, Fischer Scientific, Germany) on the right shoulder. The tumors were allowed to grow for 3–4 weeks before commencement of the experiments.
Nude mice bearing Jurkat xenografts were intravenously injected via the tail vein with ∼15 MBq (200 pmol) of the ^177Lu ligands and 8 MBq (200 pmol) of ^68Ga-7 were euthanized 1 h post injection (p.i.). The radioactivity in the syringe before and after injection was measured followed by measuring the amount of radioactivity remaining in the sacrificed mice. […]

Jurkat xenografts [2] = experiment: in vivo; details: female, athymic nude-Foxn1^nu/Foxn1^+, mouse, iv, 200 pmol, 1 h
Description: Quantification of the total body distribution of ^177Lu-7 and ^68Ga-7 was performed in Jurkat xenografted mice after intravenous injection of 100 μL, 200 pmol, with […], respectively (n = 5). The mice were sacrificed at 1 h p.i. ^177Lu-7 and ^68Ga-7 accumulated mainly in the kidneys (83.1 ± 25.5 and 75.6 ± 30.3%IA/g, respectively, p = 0.59), liver (5.19 ± 1.08 and 4.08 ± 1.05%IA/g, respectively, p = 0.07) and tumor (2.25 ± 0.43 and 2.24 ± 0.57%IA/g, respectively, p = 0.97), as already seen in the SPECT/CT and PET/CT images (Figures 6 and 7). Uptake in the tumor was lower than for the kidneys and liver but higher as in all other tissues investigated. […] The uptake seen in the liver might be attributed, at least partially, to the fact that CXCR4 is constitutively expressed in the sinusoidal endothelial cells of the murine liver[38] or could be related to another yet-unknown mechanism previously reported for other CXCR4-targeting probes.[11],[39] Regretfully, there are no direct measurements available for the affinity of ^177Lu-7 with the murine CXCR4 (mCXCR4). This is relevant for assessing its total body distribution. However, we have shown that EPI-X4 and EPI-X4 derivatives are active in mouse models of inflammatory diseases[22],[25] and cancer.[40] More specifically, EPI-X4 derivatives such as JM#21 reduced immune cell influx in lungs of mice suffering from allergic asthma or reduced skin inflammation in a murine model of atopic dermatitis upon topical administration. […] Thus, we speculate that the DOTA conjugate of JM#173 (ligand-7) also cross-reacts to the mCXCR4. […] Last, but not the least, the uptake in the kidneys was predominant, and given the highly hydrophilic character of ^177Lu-7, is attributed, at least partially, to its excretion via this path.
as §1
Quantitative biodistribution studies of ^177Lu-7 (100 μL, 200 pmol, 0.8–1 MBq) and ^68Ga-7 (100 μL, 200 pmol, 2–3 MBq) were performed after intravenous injection of the radioligand via the tail vein on Jurkat xenografts. […] 1 h after injection of the radioligand, mice were sacrificed, organs of interest and blood were collected, rinsed of excess blood, blotted dry, weighed, and counted in a γ-counter. The samples were counted against a suitable diluted aliquot of the injected solution as the standard and the results are expressed as percentage injected activity per gram of tissue (%IA/g). Statistical analysis between selected organs was performed by Welch’s t-test and p values <0.05 were considered statistically significant.

CXCR4 [3] = molecular target: T1, CXCR4 (Homo sapiens, UniProt P61073); experiment: Antibody-competition assay (anti-CXCR4 clone 12G5) on Ghost-CXCR4 cells; type: binding; details: competition with CXCR4 antibody clone 12G5, Ghost-CXCR4 cells, 4 °C, 2 h; mean ± SEM
T1 construct: Jurkat cells, which are naturally expressing high levels of CXCR4; host or cells: Jurkat, clone E6-1
T1 sequence (P61073 whole entry): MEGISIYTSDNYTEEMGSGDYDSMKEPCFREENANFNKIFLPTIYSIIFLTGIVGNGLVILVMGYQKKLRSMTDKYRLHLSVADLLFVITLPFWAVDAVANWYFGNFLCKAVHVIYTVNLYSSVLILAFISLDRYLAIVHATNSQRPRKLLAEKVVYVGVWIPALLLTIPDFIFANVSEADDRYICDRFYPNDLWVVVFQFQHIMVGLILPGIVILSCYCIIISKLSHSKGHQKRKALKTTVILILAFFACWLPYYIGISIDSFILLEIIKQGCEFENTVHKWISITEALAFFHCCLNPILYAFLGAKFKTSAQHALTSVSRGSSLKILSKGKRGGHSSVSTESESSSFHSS
Description: (§2) Binding of the DOTA-conjugated EPI-X4 derivatives to CXCR4 was assessed by an antibody-competition assay[26] using Ghost cells stably transfected with CXCR4, as well as on Jurkat cells, which are naturally expressing high levels of CXCR4. […] The buffer was removed and plates were precooled at 4 °C. Ligands were serially diluted in PBS. The antibody (clone 12G5, Allophycocyanin labeled, BD Pharmingen #555976) was diluted in PBS containing 1% FBS. The antibody was used at a fixed concentration close to its KD. 15 μL of compound and immediately afterward 15 μL of the antibody were added to the cells. Plates were incubated at 4 °C in the dark for 2 h allowing to establish an equilibrium binding. Cells were then washed twice with PBS containing 1% FBS and fixed with 2% paraformaldehyde. Antibody binding was analyzed by flow cytometry (FACS CytoFLEX; Beckman Coulter).

CXCR4 [4] = molecular target: T1, CXCR4; experiment: Antibody-competition assay (anti-CXCR4 clone 12G5) on Jurkat cells; type: binding; details: competition with CXCR4 antibody clone 12G5, Jurkat cells, 4 °C, 2 h; mean ± SEM
Description: as §2

Compound: CC[C@@H](C)[C@@H](N)C(=O)N[C@@H](CC(C)C)C(=O)N[C@@H](CCCNC(=N)N)C(=O)N[C@@H](Cc1c[nH]c2ccccc12)C(=O)N[C@@H](CO)C(=O)N[C@@H](CCCNC(=N)N)C(=O)N[C@@H](CCCCN)C(=O)N[C@@H](CCCCNC(=O)CN1CCN(CC(=O)O)CCN(CC(=O)O)CCN(CC(=O)O)CC1)C(N)=O [^68Ga-7, metal not drawn] (H-[dI]LRWSRKK(DOTA)-NH2; N-terminus assumed)
- visualization of CXCR4-expressing tumor xenograft by imaging (Jurkat xenografts [1]): visualized the CXCR4-expressing tumor xenograft
- uptake in adrenal (Jurkat xenografts [2]): 2.69 ± 0.94 % IA/g
- uptake in femur (Jurkat xenografts [2]): 1.29 ± 0.43 % IA/g
- uptake in heart (Jurkat xenografts [2]): 0.25 ± 0.09 % IA/g
- uptake in intestine (Jurkat xenografts [2]): 0.59 ± 0.18 % IA/g
- uptake in lung (Jurkat xenografts [2]): 1.78 ± 0.81 % IA/g
- uptake in muscle (Jurkat xenografts [2]): 0.44 ± 0.26 % IA/g
- uptake in pancreas (Jurkat xenografts [2]): 0.20 ± 0.11 % IA/g
- uptake in spleen (Jurkat xenografts [2]): 0.85 ± 0.29 % IA/g
- uptake in stomach (Jurkat xenografts [2]): 0.41 ± 0.16 % IA/g

- IC50 (CXCR4 [3]): 225 ± 111 nM
- IC50 (CXCR4 [4]): 122 ± 63 nM
Compound: CC[C@H](C)[C@H](N)C(=O)N[C@@H](CC(C)C)C(=O)N[C@@H](CCCNC(=N)N)C(=O)N[C@@H](Cc1c[nH]c2ccccc12)C(=O)N[C@@H](CO)C(=O)N[C@@H](CCCNC(=N)N)C(=O)N[C@@H](CCCCN)C(=O)N[C@@H](CC(C)C)C(=O)N1CCC[C@H]1C(=O)N[C@@H](CSSC[C@H](NC(=O)[C@@H]1CCCN1C(=O)[C@H](CC(C)C)NC(=O)[C@H](CCCCN)NC(=O)[C@H](CCCNC(=N)N)NC(=O)[C@H](CO)NC(=O)[C@H](Cc1c[nH]c2ccccc12)NC(=O)[C@H](CCCNC(=N)N)NC(=O)[C@H](CC(C)C)NC(=O)[C@@H](N)[C@@H](C)CC)C(=O)N[C@H](C(=O)N[C@@H](CO)C(=O)N[C@@H](CCCCNC(=O)CN1CCN(CC(=O)O)CCN(CC(=O)O)CCN(CC(=O)O)CC1)C(=O)O)C(C)C)C(=O)N[C@H](C(=O)N[C@@H](CO)C(=O)N[C@@H](CCCCNC(=O)CN1CCN(CC(=O)O)CCN(CC(=O)O)CCN(CC(=O)O)CC1)C(=O)O)C(C)C [^natLu-1 dimer, metal not drawn]

- IC50 (CXCR4 [3]): 763 ± 135 nM
- IC50 (CXCR4 [4]): 662 ± 160 nM
Compound: CC(C)C[C@@H](N)C(=O)N[C@@H](CC(C)C)C(=O)N[C@@H](CCCNC(=N)N)C(=O)N[C@@H](Cc1c[nH]c2ccccc12)C(=O)N[C@@H](CO)C(=O)N[C@@H](CCCNC(=N)N)C(=O)N[C@@H](CCCCN)C(=O)N[C@@H](CC(C)C)C(=O)N1CCC[C@H]1C(=O)N[C@@H](CSSC[C@H](NC(=O)[C@@H]1CCCN1C(=O)[C@H](CC(C)C)NC(=O)[C@H](CCCCN)NC(=O)[C@H](CCCNC(=N)N)NC(=O)[C@H](CO)NC(=O)[C@H](Cc1c[nH]c2ccccc12)NC(=O)[C@H](CCCNC(=N)N)NC(=O)[C@H](CC(C)C)NC(=O)[C@H](N)CC(C)C)C(=O)N[C@H](C(=O)N[C@@H](CO)C(=O)N[C@@H](CCCCNC(=O)CN1CCN(CC(=O)O)CCN(CC(=O)O)CCN(CC(=O)O)CC1)C(=O)O)C(C)C)C(=O)N[C@H](C(=O)N[C@@H](CO)C(=O)N[C@@H](CCCCNC(=O)CN1CCN(CC(=O)O)CCN(CC(=O)O)CCN(CC(=O)O)CC1)C(=O)O)C(C)C [^natLu-6 dimer, metal not drawn]

Compound: CCCCCCCCCCCCCCCC(=O)NCCCC[C@H](NC(=O)[C@H](CCCCN)NC(=O)[C@H](CO)NC(=O)[C@H](Cc1c[nH]c2ccccc12)NC(=O)[C@H](CCCNC(=N)N)NC(=O)[C@@H](NC(=O)[C@@H](N)[C@@H](C)CC)C(C)C)C(=O)N[C@H](C(=O)N1CCC[C@H]1C(=O)N[C@@H](CS)C(=O)N[C@H](C(=O)N[C@@H](CO)C(=O)N[C@@H](CCCCNC(=O)CN1CCN(CC(=O)O)CCN(CC(=O)O)CCN(CC(=O)O)CC1)C(=O)O)C(C)C)C(C)C [ligand-8, I^1VRWSKK^7(Pal)VPCS^12K(DOTA)] (H-IVRWSKK(Palmitoyl)VPCVSK(DOTA)-OH; N-terminus and C-terminus assumed)
- IC50 (CXCR4 [3]): 15 ± 5 nM
- IC50 (CXCR4 [4]): 4 ± 2 nM
